Data published in article PMC4725857.

B1: BBK32-C (C-terminal region of BBK32, residues 206-354) (domain or fragment)
chain: SNRYQSYLEGVKYNVDSAIQTITKIYNTYTLFSTKLTQMYSTRLDNFAKAKAKEEAAKFTKEDLEKNFKTLLNYIQVSVKTAANFVYINDTHAKRKLENIEAEIKTLIAKIKEQSNLYEAYKAIVTSILLMRDSLKEVQGIIDKNGVWY
B2: BBK32-FL (recombinant BBK32, residues 21 to 354) (natural protein)
chain: DLFIRYEMKEESPGLFDKGNSILETSEESIKKPMNKKGKGKIARKKGKSKVSRKEPYIHSLKRDSANKSNFLQKNVILEEESLKTELLKEQSETRKEKIQKQQDEYKGMTQGSLNSLSGESGELEEPIESNEIDLTIDSDLRPKSSLQGIAGSNSISYTDEIEEEDYDQYYLDEYDEEDEEEIRLSNRYQSYLEGVKYNVDSAIQTITKIYNTYTLFSTKLTQMYSTRLDNFAKAKAKEEAAKFTKEDLEKNFKTLLNYIQVSVKTAANFVYINDTHAKRKLENIEAEIKTLIAKIKEQSNLYEAYKAIVTSILLMRDSLKEVQGIIDKNGVWY

Columns and labels:
[1] = target: BBK32-C (C-terminal region of BBK32, residues 206-354) (B. burgdorferi B31) (UniProt O50835); test: SPR; Biacore 3000, 25°C; BBK32 proteins immobilised by amine coupling on a C1 sensor chip; running buffer HBS-T-Ca2+ (20 mM HEPES pH 7.3, 140 mM NaCl, 0.005% Tween 20, 5 mM CaCl2), 10 μl/min; C1 0.2-100 nM, C1r enzyme 0.39-200 nM or 2.0-1000 nM series, 1:1 (Langmuir) kinetic fit; single C1 components at a fixed 50 nM
[2] = target: BBK32-FL (recombinant BBK32, residues 21 to 354) (B. burgdorferi B31) (UniProt O50835); test: as above
[3] = target: C1r enzyme (activated human complement C1r protease) (human)
[4] = target: first component of human complement, C1 (C1 complex) (human) (UniProt P02745)

| Molecule | Kd [1] | koff [1] | kon [1] | Kd [2] | koff [2] | kon [2] | IC50 of C1r enzyme activity (cleavage of C1s proenzyme by 50 nM C1r enzyme, SDS-PAGE densitometry) [3] | IC50 of classical pathway inhibition, ELISA: C3b detection (immobilised human IgM, 1% human serum) [4] | IC50 of classical pathway inhibition, ELISA: C4b detection (immobilised human IgM, 1% human serum) [4] | IC50 of inhibition of CP-mediated hemolysis (CP50, sensitized sheep erythrocytes, 1% normal human serum) [4] |
| --- | --- | --- | --- | --- | --- | --- | --- | --- | --- | --- |
| first component of human complement, C1 (C1 complex) (from UniProt P02745 23-245; P02746 28-253; P02747 29-245) | 2.3 nM | – | – | – | – | – | – | – | – | – |
| C1r enzyme (activated human complement C1r protease) | 32 nM | 0.00011 s⁻¹ | 3900 M⁻¹ s⁻¹ | 15 nM | 0.00022 s⁻¹ | 19000 M⁻¹ s⁻¹ | – | – | – | – |
| B1 | – | – | – | – | – | – | 540 nM | 4.7 nM | 5.6 nM | 60 nM |
| B2 | – | – | – | – | – | – | 670 nM | 34 nM | 34 nM | 110 nM |
